In article PMC5224480 (Nucleic Acids Research, 2016):

Biological target: T1, β subunit of Thermotoga maritima RNA polymerase (tmβ) (Thermotoga maritima, UniProt P29398 1-1263)
T1 sequence (looked up): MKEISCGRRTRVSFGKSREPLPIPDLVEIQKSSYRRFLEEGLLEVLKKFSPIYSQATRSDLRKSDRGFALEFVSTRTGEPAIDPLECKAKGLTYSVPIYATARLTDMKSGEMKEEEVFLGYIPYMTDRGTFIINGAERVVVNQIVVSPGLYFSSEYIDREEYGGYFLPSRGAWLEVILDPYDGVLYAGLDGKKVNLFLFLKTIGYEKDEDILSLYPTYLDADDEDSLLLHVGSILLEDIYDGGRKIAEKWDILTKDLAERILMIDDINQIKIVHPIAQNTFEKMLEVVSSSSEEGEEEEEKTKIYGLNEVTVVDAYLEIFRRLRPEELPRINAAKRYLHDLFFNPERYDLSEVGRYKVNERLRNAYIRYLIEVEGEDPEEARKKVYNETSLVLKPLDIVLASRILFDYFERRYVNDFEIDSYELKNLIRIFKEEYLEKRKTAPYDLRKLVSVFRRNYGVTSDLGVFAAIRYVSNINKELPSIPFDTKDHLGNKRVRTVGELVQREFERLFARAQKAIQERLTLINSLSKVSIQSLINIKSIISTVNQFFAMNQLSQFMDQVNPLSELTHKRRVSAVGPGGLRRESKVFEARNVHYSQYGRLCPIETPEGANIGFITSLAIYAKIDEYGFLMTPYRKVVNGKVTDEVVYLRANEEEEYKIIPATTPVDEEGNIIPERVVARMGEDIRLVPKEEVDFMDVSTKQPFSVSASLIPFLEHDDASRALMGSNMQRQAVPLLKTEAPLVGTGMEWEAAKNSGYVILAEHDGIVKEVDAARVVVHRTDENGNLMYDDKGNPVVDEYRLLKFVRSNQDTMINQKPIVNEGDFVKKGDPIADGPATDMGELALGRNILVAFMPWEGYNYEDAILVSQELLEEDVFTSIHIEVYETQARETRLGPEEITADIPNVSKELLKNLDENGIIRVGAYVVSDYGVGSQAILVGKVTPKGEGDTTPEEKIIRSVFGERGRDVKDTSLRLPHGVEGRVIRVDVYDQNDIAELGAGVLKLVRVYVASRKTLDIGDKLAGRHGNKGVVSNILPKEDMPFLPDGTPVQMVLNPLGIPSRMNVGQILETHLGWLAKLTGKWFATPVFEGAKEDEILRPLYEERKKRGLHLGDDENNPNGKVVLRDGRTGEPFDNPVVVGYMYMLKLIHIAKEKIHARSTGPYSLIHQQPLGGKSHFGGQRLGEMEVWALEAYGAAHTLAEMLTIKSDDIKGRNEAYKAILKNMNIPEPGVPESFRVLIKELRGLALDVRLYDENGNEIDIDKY
Test: NMR titration

- binding result: binds
B1: tmNusG-DII (residues 42-233 of tmNusG) (domain or fragment, Thermotoga maritima, UniProt P29397 42-233, looked up)
chain: EEVVLDATSPSERLILSPKAKLHVNNGKDVNKGDLIAEEPPIYARRSGVIVDVKNVRKIVVETIDRKYTKTYYIPESAGIEPGLRVGTKVKQGLPLSKNEEYICELDGKIVEIERMKKVVVQTPDGEQDVYYIPLDVFDRDRIKKGKEVKQGEMLAEARKFFAKVSGRVEVVDYSTRKEIRIYKTKRRKLFP
